Starred links: 1 amine or outer side, 2 acyl side, 3 side chain; linkers in the order of their positions; H or OH if unused. Non-standard residues stand in square brackets, D forms with d. Groups on a side chain read outwards from the residue. No end group written: not given here. *: point of attachment. C20 diacid = O=C(O)CCCCCCCCCCCCCCCCCCC(=O)*; C18 diacid = O=C(O)CCCCCCCCCCCCCCCCC(=O)*; γGlu = O=C(O)[C@H](CCC(=O)[*:2])N[*:1]; αMeF = C[C@](N)(Cc1ccccc1)C(=O)O; AEEA = NCCOCCOCC(=O)O; Aib = CC(C)(N)C(=O)O
How the values were obtained:
human glucagon receptor = human glucagon receptor (human, UniProt P47871); assay: cell-based or functional assay
human GLP-1 receptor = human GLP-1 receptor (human, UniProt P43220); assay: cell-based or functional assay

Row | cAMP production EC50 (human glucagon receptor) | cAMP production EC50 (human GLP-1 receptor) | Binder
1 | 0.0569 nM | 0.00804 nM | H[Aib]QGTFTSDVSK[αMeF]LDTK([AEEA-AEEA-γGlu-C18 diacid])RARDFVQWLLA[Aib]G-NH2 (N-terminus assumed; SMILES CC(C)C[C@H](NC(=O)[C@H](CC(C)C)NC(=O)[C@H](Cc1c[nH]c2ccccc12)NC(=O)[C@H](CCC(N)=O)NC(=O)[C@@H](NC(=O)[C@H](Cc1ccccc1)NC(=O)[C@H](CC(=O)O)NC(=O)[C@H](CCCNC(=N)N)NC(=O)[C@H](C)NC(=O)[C@H](CCCNC(=N)N)NC(=O)[C@H](CCCCNC(=O)COCCOCCNC(=O)COCCOCCNC(=O)CC[C@H](NC(=O)CCCCCCCCCCCCCCCCC(=O)O)C(=O)O)NC(=O)[C@@H](NC(=O)[C@H](CC(=O)O)NC(=O)[C@H](CC(C)C)NC(=O)[C@](C)(Cc1ccccc1)NC(=O)[C@H](CCCCN)NC(=O)[C@H](CO)NC(=O)[C@@H](NC(=O)[C@H](CC(=O)O)NC(=O)[C@H](CO)NC(=O)[C@@H](NC(=O)[C@H](Cc1ccccc1)NC(=O)[C@@H](NC(=O)CNC(=O)[C@H](CCC(N)=O)NC(=O)C(C)(C)NC(=O)[C@@H](N)Cc1c[nH]cn1)[C@@H](C)O)[C@@H](C)O)C(C)C)[C@@H](C)O)C(C)C)C(=O)N[C@@H](C)C(=O)NC(C)(C)C(=O)NCC(N)=O) [Peptide 474]
2 | 0.538 nM | 0.255 nM | H[Aib]QGTFTSDVSK[αMeF]LDTK([AEEA-AEEA-γGlu-γGlu-C20 diacid])RAQDFVQWLLE[Aib]G-NH2 (N-terminus assumed; SMILES CC(C)C[C@H](NC(=O)[C@H](Cc1c[nH]c2ccccc12)NC(=O)[C@H](CCC(N)=O)NC(=O)[C@@H](NC(=O)[C@H](Cc1ccccc1)NC(=O)[C@H](CC(=O)O)NC(=O)[C@H](CCC(N)=O)NC(=O)[C@H](C)NC(=O)[C@H](CCCNC(=N)N)NC(=O)[C@H](CCCCNC(=O)COCCOCCNC(=O)COCCOCCNC(=O)CC[C@H](NC(=O)CC[C@H](NC(=O)CCCCCCCCCCCCCCCCCCC(=O)O)C(=O)O)C(=O)O)NC(=O)[C@@H](NC(=O)[C@H](CC(=O)O)NC(=O)[C@H](CC(C)C)NC(=O)[C@](C)(Cc1ccccc1)NC(=O)[C@H](CCCCN)NC(=O)[C@H](CO)NC(=O)[C@@H](NC(=O)[C@H](CC(=O)O)NC(=O)[C@H](CO)NC(=O)[C@@H](NC(=O)[C@H](Cc1ccccc1)NC(=O)[C@@H](NC(=O)CNC(=O)[C@H](CCC(N)=O)NC(=O)C(C)(C)NC(=O)[C@@H](N)Cc1c[nH]cn1)[C@@H](C)O)[C@@H](C)O)C(C)C)[C@@H](C)O)C(C)C)C(=O)N[C@@H](CC(C)C)C(=O)N[C@@H](CCC(=O)O)C(=O)NC(C)(C)C(=O)NCC(N)=O) [Peptide 469]
3 | 0.0141 nM | 0.0115 nM | H[Aib]QGTFTSDVSK[αMeF]LDRK([AEEA-AEEA-γGlu-C18 diacid])RARDFVQWLL[Aib]E-NH2 (N-terminus assumed; SMILES CC(C)C[C@H](NC(=O)[C@H](Cc1c[nH]c2ccccc12)NC(=O)[C@H](CCC(N)=O)NC(=O)[C@@H](NC(=O)[C@H](Cc1ccccc1)NC(=O)[C@H](CC(=O)O)NC(=O)[C@H](CCCNC(=N)N)NC(=O)[C@H](C)NC(=O)[C@H](CCCNC(=N)N)NC(=O)[C@H](CCCCNC(=O)COCCOCCNC(=O)COCCOCCNC(=O)CC[C@H](NC(=O)CCCCCCCCCCCCCCCCC(=O)O)C(=O)O)NC(=O)[C@H](CCCNC(=N)N)NC(=O)[C@H](CC(=O)O)NC(=O)[C@H](CC(C)C)NC(=O)[C@](C)(Cc1ccccc1)NC(=O)[C@H](CCCCN)NC(=O)[C@H](CO)NC(=O)[C@@H](NC(=O)[C@H](CC(=O)O)NC(=O)[C@H](CO)NC(=O)[C@@H](NC(=O)[C@H](Cc1ccccc1)NC(=O)[C@@H](NC(=O)CNC(=O)[C@H](CCC(N)=O)NC(=O)C(C)(C)NC(=O)[C@@H](N)Cc1c[nH]cn1)[C@@H](C)O)[C@@H](C)O)C(C)C)C(C)C)C(=O)N[C@@H](CC(C)C)C(=O)NC(C)(C)C(=O)N[C@@H](CCC(=O)O)C(N)=O) [Peptide 473]
4 | 0.0303 nM | 0.0559 nM | H[Aib]QGTFTSDVSK[αMeF]LDKK([AEEA-AEEA-γGlu-C20 diacid])RARDFVQWLL[Aib]E-NH2 (N-terminus assumed; SMILES CC(C)C[C@H](NC(=O)[C@H](Cc1c[nH]c2ccccc12)NC(=O)[C@H](CCC(N)=O)NC(=O)[C@@H](NC(=O)[C@H](Cc1ccccc1)NC(=O)[C@H](CC(=O)O)NC(=O)[C@H](CCCNC(=N)N)NC(=O)[C@H](C)NC(=O)[C@H](CCCNC(=N)N)NC(=O)[C@H](CCCCNC(=O)COCCOCCNC(=O)COCCOCCNC(=O)CC[C@H](NC(=O)CCCCCCCCCCCCCCCCCCC(=O)O)C(=O)O)NC(=O)[C@H](CCCCN)NC(=O)[C@H](CC(=O)O)NC(=O)[C@H](CC(C)C)NC(=O)[C@](C)(Cc1ccccc1)NC(=O)[C@H](CCCCN)NC(=O)[C@H](CO)NC(=O)[C@@H](NC(=O)[C@H](CC(=O)O)NC(=O)[C@H](CO)NC(=O)[C@@H](NC(=O)[C@H](Cc1ccccc1)NC(=O)[C@@H](NC(=O)CNC(=O)[C@H](CCC(N)=O)NC(=O)C(C)(C)NC(=O)[C@@H](N)Cc1c[nH]cn1)[C@@H](C)O)[C@@H](C)O)C(C)C)C(C)C)C(=O)N[C@@H](CC(C)C)C(=O)NC(C)(C)C(=O)N[C@@H](CCC(=O)O)C(N)=O) [Peptide 470]
5 | 0.0111 nM | 0.00763 nM | H[Aib]QGTFTSDVSK[αMeF]LDKK([AEEA-AEEA-γGlu-C18 diacid])RARDFVQWLL[Aib]E-NH2 (N-terminus assumed; SMILES CC(C)C[C@H](NC(=O)[C@H](Cc1c[nH]c2ccccc12)NC(=O)[C@H](CCC(N)=O)NC(=O)[C@@H](NC(=O)[C@H](Cc1ccccc1)NC(=O)[C@H](CC(=O)O)NC(=O)[C@H](CCCNC(=N)N)NC(=O)[C@H](C)NC(=O)[C@H](CCCNC(=N)N)NC(=O)[C@H](CCCCNC(=O)COCCOCCNC(=O)COCCOCCNC(=O)CC[C@H](NC(=O)CCCCCCCCCCCCCCCCC(=O)O)C(=O)O)NC(=O)[C@H](CCCCN)NC(=O)[C@H](CC(=O)O)NC(=O)[C@H](CC(C)C)NC(=O)[C@](C)(Cc1ccccc1)NC(=O)[C@H](CCCCN)NC(=O)[C@H](CO)NC(=O)[C@@H](NC(=O)[C@H](CC(=O)O)NC(=O)[C@H](CO)NC(=O)[C@@H](NC(=O)[C@H](Cc1ccccc1)NC(=O)[C@@H](NC(=O)CNC(=O)[C@H](CCC(N)=O)NC(=O)C(C)(C)NC(=O)[C@@H](N)Cc1c[nH]cn1)[C@@H](C)O)[C@@H](C)O)C(C)C)C(C)C)C(=O)N[C@@H](CC(C)C)C(=O)NC(C)(C)C(=O)N[C@@H](CCC(=O)O)C(N)=O) [Peptide 472]
6 | 0.0636 nM | 0.102 nM | H[Aib]QGTFTSDVSK[αMeF]LDRK([AEEA-AEEA-γGlu-C20 diacid])RARDFVQWLL[Aib]E-NH2 [Peptide 471]
